The values below come from patent US20200223888A1 (ARCH BIOPARTNERS, published 2020).

Ends that are not written are not given here. * marks the point of attachment. Biotin = O=C1N[C@H]2[C@H](CS[C@H]2CCCCC(=O)*)N1

The chains are these.
B1: LSALT peptide (LSALTPSPSWLKYKAL) (peptide)
peptide: LSALTPSPSWLKYKAL
modifications: also: Alexa-488 or biotin label or agarose support in some assays, site not given here
notes: Synthetic peptide from a phage display hit; The label or support differs between assays; also called Metablok; Native

Data set [1] has as its target B1. Briefly: phage display biopanning against LSALT-agarose, three rounds, plaque sequencing (FIG. 20A). The text has this:
Each plaque was amplified separately in liquid bacterial host culture. […] DNA inserts were translated to the expected protein and sorted to assess the number of repeating sequences.

For data set [2], the target named is T1, rat membrane dipeptidase (DPEP-1), expressed on transfected Cos cells (rat, UniProt P31430 17-384).
T1 construct: whole, on cells; also called renal rat membrane dipeptidase (DPEP-1); rat DPEP-1
Briefly: Alexa-488 peptide on transfected Cos-7 cells, flow cytometry (FIG. 9). How it is done: Cells were washed and flow cytometry was performed to assess binding. Shown are single parameter histographs for each experimental condition (n=2).

Data set [3] deals with T2, human membrane dipeptidase (DPEP-1), wild type, expressed on transfected cells (human, UniProt P16444 17-385).
T2 construct: whole, on cells; also called human DPEP1; hDPEP1
T2 sequence (looked up): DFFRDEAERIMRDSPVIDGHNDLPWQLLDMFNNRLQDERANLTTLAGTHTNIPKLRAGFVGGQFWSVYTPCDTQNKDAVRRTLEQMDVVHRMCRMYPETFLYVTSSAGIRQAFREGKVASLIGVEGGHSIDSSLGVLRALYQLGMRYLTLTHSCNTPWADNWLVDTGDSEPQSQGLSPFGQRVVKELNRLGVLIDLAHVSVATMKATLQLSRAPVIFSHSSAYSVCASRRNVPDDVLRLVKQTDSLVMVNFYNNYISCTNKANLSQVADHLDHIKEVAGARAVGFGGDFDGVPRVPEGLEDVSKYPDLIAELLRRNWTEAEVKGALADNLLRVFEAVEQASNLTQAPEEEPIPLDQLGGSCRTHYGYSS
Briefly: Alexa-488 peptide on transfected Cos-1 cells, immunofluorescence microscopy (FIG. 5B). How it is done: Cells were blocked with FBS/NBSA/Tween in PBS for 30 minutes on ice.

The target of data set [4] is T2, human membrane dipeptidase (DPEP-1), …. As to the kind of experiment: biotinylated peptide at 5 uM on fixed DPEP1-transfected HEK cells, Alexa 568-streptavidin, fluorescence microscopy.
Data set [5] has the same target. As to the kind of experiment: phage (10^8 pfu) on DPEP1 transfected Cos 1 cells, anti-M13 serum, fluorescence imaging (FIG. 19B). How it is done:
In FIG. 19B, Cosl cells were transiently transfected with plasmids corresponding to human DPEP1 or DPEP2 (Lipofectamine 2000) 24 hrs prior to plating on collagen-coated (PureCol; Type I collagen from bovine tendon) coverslips. One day later cells were incubated with 10⁸ pfu test phage, which were then detected by anti-M13 rabbit serum (in house) with anti-rabbit Alexa 568 secondary. After fixing and counterstaining with DAPI, coverslips were fluorescently imaged.

Data set [6] concerns the target GFE-1 peptide.
In data set [7] the target is T3, LSALT peptide (LSALTPSPSWLKYKAL).
T3 chain: LSALTPSPSWLKYKAL

T1 sequence (P31430 17-384): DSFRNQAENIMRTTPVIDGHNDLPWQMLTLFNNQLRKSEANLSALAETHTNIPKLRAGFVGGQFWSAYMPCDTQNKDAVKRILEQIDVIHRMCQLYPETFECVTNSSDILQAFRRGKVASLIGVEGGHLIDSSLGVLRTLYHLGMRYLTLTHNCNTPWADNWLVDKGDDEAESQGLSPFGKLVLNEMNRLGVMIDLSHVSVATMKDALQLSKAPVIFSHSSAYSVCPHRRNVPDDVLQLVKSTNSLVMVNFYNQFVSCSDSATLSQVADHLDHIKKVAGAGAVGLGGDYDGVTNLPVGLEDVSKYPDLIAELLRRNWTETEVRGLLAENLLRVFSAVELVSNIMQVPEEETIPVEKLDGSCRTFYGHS

With HIPKSPIQIPII (also called IPK peptide) [IPK phage hit HIPKSPIQIPII (Ph.D.-12 library)], the binding result in data set [1] is listed as “binds”.
Consider B1, for which the binding result in data set [2] and in data set [3] was “binds” throughout.
Biotin-ASALTPSPSWLKYKAL (also called #A1; A1) [LSALT alanine walk peptide Pos 1 (ASALTPSPSWLKYKAL)]: the binding result in data set [4] is listed as “binds”.
Biotin-LSALTPSPSALKYKAL (also called #A10; A10) [LSALT alanine walk peptide Pos 10 (LSALTPSPSALKYKAL)]: the binding result in data set [4] was “binds”.
The same measure, in the same setting: the same measure for Biotin-LSALTPSPSWLAYKAL (also called #A12; #Al2) [LSALT alanine walk peptide Pos 12 (LSALTPSPSWLAYKAL)]: “binds”.
On the same count and under the same terms, to Biotin-LSALAPSPSWLKYKAL (also called #A5; A5) [LSALT alanine walk peptide Pos 5 (LSALAPSPSWLKYKAL)] belongs “binds”.

B2: phage hit displaying KHMHWHPPALNT (Ph.D.-12 library) (peptide)
peptide: KHMHWHPPALNT
notes: The phage coat protein part is not described; also called neogenin-mimetic peptide phage hit; phage peptide tentatively identified as corresponding to Neogenin
Regarding B2, in data set [5], the binding result is on record as “binds”.

B3: human membrane dipeptidase (DPEP-1), wild type, expressed on transfected cells (protein)
chain: DFFRDEAERIMRDSPVIDGHNDLPWQLLDMFNNRLQDERANLTTLAGTHTNIPKLRAGFVGGQFWSVYTPCDTQNKDAVRRTLEQMDVVHRMCRMYPETFLYVTSSAGIRQAFREGKVASLIGVEGGHSIDSSLGVLRALYQLGMRYLTLTHSCNTPWADNWLVDTGDSEPQSQGLSPFGQRVVKELNRLGVLIDLAHVSVATMKATLQLSRAPVIFSHSSAYSVCASRRNVPDDVLRLVKQTDSLVMVNFYNNYISCTNKANLSQVADHLDHIKEVAGARAVGFGGDFDGVPRVPEGLEDVSKYPDLIAELLRRNWTEAEVKGALADNLLRVFEAVEQASNLTQAPEEEPIPLDQLGGSCRTHYGYSS
As to B3, the “membrane dipeptidase enzyme activity (Gly-D-Phe substrate, fluorimetric detection of D-Phe)” value in data set [6] is “LSALT and GFE-1 do not inhibit membrane dipeptidase enzyme activity”; in data set [7], “LSALT and GFE-1 do not inhibit membrane dipeptidase enzyme activity”.
